# T1: polyhistidine-tagged Pol1B (recombinant, fluorescently labelled) (Arabidopsis thaliana, UniProt Q84ND9 56-1034, fluorescent dye RED-tris-NTA (Monolith His-Tag Labeling Kit) on the His tag)
# T1 construct: DNA polymerase 1B, Arabidopsis thaliana, At3g20540; also called his-tagged Pol1B; DNA polymerase 1B; source: recombinant, purified
# T1 sequence (looked up): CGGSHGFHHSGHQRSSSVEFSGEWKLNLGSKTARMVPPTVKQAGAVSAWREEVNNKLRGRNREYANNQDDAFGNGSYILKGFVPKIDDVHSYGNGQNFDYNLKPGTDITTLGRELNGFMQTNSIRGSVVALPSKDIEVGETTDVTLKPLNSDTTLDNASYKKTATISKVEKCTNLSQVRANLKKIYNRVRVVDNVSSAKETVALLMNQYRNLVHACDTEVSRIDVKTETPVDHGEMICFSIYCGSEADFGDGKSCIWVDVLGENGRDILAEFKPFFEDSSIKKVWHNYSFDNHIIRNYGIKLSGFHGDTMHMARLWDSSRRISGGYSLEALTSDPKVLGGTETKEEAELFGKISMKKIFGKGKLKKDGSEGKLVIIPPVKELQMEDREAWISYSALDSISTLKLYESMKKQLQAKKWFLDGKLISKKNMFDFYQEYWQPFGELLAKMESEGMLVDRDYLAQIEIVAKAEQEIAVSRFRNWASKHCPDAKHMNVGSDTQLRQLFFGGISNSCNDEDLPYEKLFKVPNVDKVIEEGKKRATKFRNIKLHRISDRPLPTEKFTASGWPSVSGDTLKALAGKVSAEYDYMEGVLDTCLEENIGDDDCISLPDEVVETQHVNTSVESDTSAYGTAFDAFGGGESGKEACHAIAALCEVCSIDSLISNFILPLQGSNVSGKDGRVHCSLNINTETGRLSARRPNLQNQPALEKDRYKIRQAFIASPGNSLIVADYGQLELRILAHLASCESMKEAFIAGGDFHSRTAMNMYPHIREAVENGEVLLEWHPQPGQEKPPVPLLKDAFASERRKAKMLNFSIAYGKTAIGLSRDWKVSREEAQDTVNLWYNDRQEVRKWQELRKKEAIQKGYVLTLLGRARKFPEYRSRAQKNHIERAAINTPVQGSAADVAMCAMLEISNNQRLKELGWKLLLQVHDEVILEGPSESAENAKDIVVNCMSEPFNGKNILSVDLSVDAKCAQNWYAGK
# Assays:
# DnaE (Bacillus subtilis) = DnaE (Bacillus subtilis) (UniProt O34623); settings: cited from earlier work
# Sequence of DnaE (Bacillus subtilis) (O34623 whole entry): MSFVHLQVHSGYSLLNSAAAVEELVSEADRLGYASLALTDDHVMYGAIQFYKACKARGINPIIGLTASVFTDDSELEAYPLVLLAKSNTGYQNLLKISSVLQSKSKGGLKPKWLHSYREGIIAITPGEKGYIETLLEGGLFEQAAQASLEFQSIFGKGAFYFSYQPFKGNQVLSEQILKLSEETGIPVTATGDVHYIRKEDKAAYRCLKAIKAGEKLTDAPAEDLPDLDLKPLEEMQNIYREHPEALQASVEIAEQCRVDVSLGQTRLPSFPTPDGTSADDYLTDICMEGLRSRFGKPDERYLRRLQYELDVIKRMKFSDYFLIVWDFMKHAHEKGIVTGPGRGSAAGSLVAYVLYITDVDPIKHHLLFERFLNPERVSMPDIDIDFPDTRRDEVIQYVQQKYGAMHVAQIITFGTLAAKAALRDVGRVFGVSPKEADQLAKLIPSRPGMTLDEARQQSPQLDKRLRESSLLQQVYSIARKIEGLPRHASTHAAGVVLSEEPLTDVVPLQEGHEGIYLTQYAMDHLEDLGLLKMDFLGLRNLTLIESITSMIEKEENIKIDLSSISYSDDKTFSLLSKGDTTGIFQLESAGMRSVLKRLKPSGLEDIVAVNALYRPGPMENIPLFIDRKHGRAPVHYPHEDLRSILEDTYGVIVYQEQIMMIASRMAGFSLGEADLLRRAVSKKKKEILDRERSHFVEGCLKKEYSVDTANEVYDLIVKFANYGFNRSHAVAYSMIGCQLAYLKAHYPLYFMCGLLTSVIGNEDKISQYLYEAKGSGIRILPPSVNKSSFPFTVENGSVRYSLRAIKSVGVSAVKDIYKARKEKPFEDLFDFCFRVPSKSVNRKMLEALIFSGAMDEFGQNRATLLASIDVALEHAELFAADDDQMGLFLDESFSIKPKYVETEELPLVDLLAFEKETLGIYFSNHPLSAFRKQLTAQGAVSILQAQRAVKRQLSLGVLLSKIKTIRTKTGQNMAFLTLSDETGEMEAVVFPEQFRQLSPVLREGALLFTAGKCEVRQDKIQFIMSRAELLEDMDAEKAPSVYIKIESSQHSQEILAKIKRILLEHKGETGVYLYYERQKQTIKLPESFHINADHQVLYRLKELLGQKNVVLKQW
# [1] = biological target: T7 primase-helicase (Escherichia phage T7) (UniProt P03692); settings: cited from earlier work
# Sequence of T7 primase-helicase (Escherichia phage T7) (P03692 whole entry): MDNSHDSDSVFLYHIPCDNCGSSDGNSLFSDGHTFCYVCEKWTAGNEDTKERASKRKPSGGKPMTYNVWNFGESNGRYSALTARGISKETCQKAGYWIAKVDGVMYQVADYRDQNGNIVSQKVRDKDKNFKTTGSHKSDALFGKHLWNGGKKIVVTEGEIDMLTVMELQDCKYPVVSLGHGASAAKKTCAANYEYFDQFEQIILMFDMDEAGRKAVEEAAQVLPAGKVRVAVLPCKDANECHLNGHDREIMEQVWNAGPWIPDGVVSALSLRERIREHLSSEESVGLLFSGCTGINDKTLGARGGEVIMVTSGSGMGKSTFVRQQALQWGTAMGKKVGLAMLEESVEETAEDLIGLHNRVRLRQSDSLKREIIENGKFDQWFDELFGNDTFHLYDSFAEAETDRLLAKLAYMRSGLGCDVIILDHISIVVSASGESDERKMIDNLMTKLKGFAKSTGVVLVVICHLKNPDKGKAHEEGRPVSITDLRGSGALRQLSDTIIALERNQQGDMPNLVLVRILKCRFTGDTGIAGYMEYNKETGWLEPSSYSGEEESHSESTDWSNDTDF
# [2] = biological target: T1, polyhistidine-tagged Pol1B …; test: MST; His-tagged Pol1B labelled with RED-tris-NTA, constant 20 nM (10 nM in the results text); ligands in 16 serial dilutions; PBS + 0.05% Tween; Monolith NT.115p, 10% LED power, 50% MST power, standard capillaries; settings: both partners purified
# Sequence of T7 DNA polymerase (P00581 whole entry): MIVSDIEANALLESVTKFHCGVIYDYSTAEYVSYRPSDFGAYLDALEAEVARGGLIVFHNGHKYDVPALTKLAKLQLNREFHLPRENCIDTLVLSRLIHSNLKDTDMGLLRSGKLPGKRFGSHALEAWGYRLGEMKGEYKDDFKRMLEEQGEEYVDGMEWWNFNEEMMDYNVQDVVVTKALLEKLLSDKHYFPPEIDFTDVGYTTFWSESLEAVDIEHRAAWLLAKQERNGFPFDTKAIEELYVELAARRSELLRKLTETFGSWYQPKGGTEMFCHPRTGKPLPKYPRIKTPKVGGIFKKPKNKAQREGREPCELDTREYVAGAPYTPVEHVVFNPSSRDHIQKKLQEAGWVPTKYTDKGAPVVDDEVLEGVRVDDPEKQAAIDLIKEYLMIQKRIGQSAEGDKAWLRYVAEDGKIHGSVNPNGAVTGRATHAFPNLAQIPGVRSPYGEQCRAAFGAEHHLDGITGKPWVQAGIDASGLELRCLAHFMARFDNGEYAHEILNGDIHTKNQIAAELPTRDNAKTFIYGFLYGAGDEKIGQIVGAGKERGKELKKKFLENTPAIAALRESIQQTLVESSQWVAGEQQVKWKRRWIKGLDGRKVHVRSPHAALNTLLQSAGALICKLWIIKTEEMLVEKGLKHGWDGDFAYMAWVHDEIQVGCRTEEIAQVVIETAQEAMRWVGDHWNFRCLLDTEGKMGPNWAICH
# Sequence of DnaG primase (P05096 whole entry): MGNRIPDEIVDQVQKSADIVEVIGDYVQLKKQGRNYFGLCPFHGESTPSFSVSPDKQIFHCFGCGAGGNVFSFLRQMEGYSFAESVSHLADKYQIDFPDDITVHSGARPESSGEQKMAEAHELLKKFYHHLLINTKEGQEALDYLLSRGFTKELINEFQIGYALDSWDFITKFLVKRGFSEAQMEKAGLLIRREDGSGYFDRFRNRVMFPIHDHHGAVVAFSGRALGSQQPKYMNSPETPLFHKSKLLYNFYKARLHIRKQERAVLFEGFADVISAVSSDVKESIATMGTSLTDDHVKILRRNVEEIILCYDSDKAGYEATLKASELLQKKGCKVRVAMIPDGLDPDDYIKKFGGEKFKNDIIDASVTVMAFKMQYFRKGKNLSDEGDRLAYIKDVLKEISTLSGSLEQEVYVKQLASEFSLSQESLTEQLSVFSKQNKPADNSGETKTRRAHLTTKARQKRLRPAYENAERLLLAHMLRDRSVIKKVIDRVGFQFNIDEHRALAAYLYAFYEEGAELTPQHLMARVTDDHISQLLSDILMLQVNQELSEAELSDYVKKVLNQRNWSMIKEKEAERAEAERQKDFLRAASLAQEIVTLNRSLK
Molecule,Kd [2],further results
DnaG primase (from UniProt P05096),,Kd (DnaE (Bacillus subtilis)): 750 nM
T7 DNA polymerase (from UniProt P00581),,Kd [1]: 440 nM
"Twinkle helicase domain (401-709) (domain or fragment, Arabidopsis thaliana, UniProt B5X582 401-709, looked up, Twinkle, Arabidopsis thaliana, At1g30680, helicase domain, residues 401-709; Tags of the pCri-1b vector removed with TEV protease; also called helicase module; source: cloned into pCri-1b, purified (potassium phosphate pH 7.0 buffer)) AILDAEPYPILGLFSFKDFFDEIDAYYDRTHGHEYGVSTGWKNLDNLYSVVPGELTVVTGIPNSGKSEWIDAMLCNLNHSVGWKFALCSMENKVRDHARKLLEKHIKKPFFDADYGRSVQRMSVEEKDEGKKWLNDTFYPIRCEMDSLPSIDWVLERAKAAVLRYGIRGLVIDPYNELDHQRTPRQTETEYVSQMLTKIKRFSQHHSCHVWFVAHPKQLQHWDGGAPNLYDISGSAHFINKCDNGIIVHRNRDENAGPLDLVQIGVRKVRNKVAGQIGDAYLCYDRTTGSYSDSPVTPGMPERRSPKRY",1970 nM,

# The next lines start with results.
Kd [2],Molecule,further results
2170 nM,"Twinkle zinc finger subdomain (residues 92-186) (domain or fragment, Arabidopsis thaliana, UniProt B5X582 92-186, looked up, Twinkle, Arabidopsis thaliana, At1g30680, zinc finger subdomain, residues 92-186; Tag removed with PreScission protease; also called Zn++ Finger domain; zf) TPVDTEVEADKRVVLSRLVTLRRKLAEQGVDAENCPPGQHSGLICPTCEGGNSGEKSLSLFIAPDGSSATWNCFRGKCGLKGGVRADGGLASADP",
810 nM,"Twinkle primase domain (residues 92-410) (domain or fragment, Arabidopsis thaliana, UniProt B5X582 92-410, looked up, Twinkle, Arabidopsis thaliana, At1g30680, primase domain, residues 92-410; Tag removed with PreScission protease; also called primase module) TPVDTEVEADKRVVLSRLVTLRRKLAEQGVDAENCPPGQHSGLICPTCEGGNSGEKSLSLFIAPDGSSATWNCFRGKCGLKGGVRADGGLASADPIEKVERKITVEGIELEPLCDEIQDYFAARAISRKTLERNRVMQKRIGDEIVIAFTYWQRGELVSCKYRSLTKMFFQERKTRRILYGLDDIEKTSEVIIVEGEIDKLAMEEAGFLNCVSVPDGAPAKVSSKEIPSEDKDTKYKFLWNCNDYLKKASRIVIATDGDGPGQAMAEEIARRLGKERCWRVKWPKKSEDEHFKDANEVLMSKGPHLLKEAILDAEPYPI",
1260 nM,"full-length Twinkle (recombinant, without histidine tag) (enzyme, Arabidopsis thaliana, UniProt B5X582 82-709, looked up, Twinkle, Arabidopsis thaliana, At1g30680; called full-length in the results and legend; the methods name 'Twinkle lacking the first 91 codons' as the template of the domain constructs; Used without a histidine tag; It may in fact be the form lacking the first 91 residues (92-709); also called the full-length protein) SSYNSIPRVPTPVDTEVEADKRVVLSRLVTLRRKLAEQGVDAENCPPGQHSGLICPTCEGGNSGEKSLSLFIAPDGSSATWNCFRGKCGLKGGVRADGGLASADPIEKVERKITVEGIELEPLCDEIQDYFAARAISRKTLERNRVMQKRIGDEIVIAFTYWQRGELVSCKYRSLTKMFFQERKTRRILYGLDDIEKTSEVIIVEGEIDKLAMEEAGFLNCVSVPDGAPAKVSSKEIPSEDKDTKYKFLWNCNDYLKKASRIVIATDGDGPGQAMAEEIARRLGKERCWRVKWPKKSEDEHFKDANEVLMSKGPHLLKEAILDAEPYPILGLFSFKDFFDEIDAYYDRTHGHEYGVSTGWKNLDNLYSVVPGELTVVTGIPNSGKSEWIDAMLCNLNHSVGWKFALCSMENKVRDHARKLLEKHIKKPFFDADYGRSVQRMSVEEKDEGKKWLNDTFYPIRCEMDSLPSIDWVLERAKAAVLRYGIRGLVIDPYNELDHQRTPRQTETEYVSQMLTKIKRFSQHHSCHVWFVAHPKQLQHWDGGAPNLYDISGSAHFINKCDNGIIVHRNRDENAGPLDLVQIGVRKVRNKVAGQIGDAYLCYDRTTGSYSDSPVTPGMPERRSPKRY",

# — article PMC6554949, “Arabidopsis thaliana organelles mimic the T7 phage DNA replisome with specific interactions between Twinkle protein and DNA polymerases Pol1A and Pol1B” (BMC Plant Biology, 2019)
